Source: article PMC10039853, “Increasing the melting temperature of VHH with the in silico free energy score” (Scientific Reports, 2023)
Substitutions are numbered along the chain they refer to. Numbers in names are those of the source.

B1: D3-L11 A79W (VHH)
VHH: DVQLVESGGGSVQAGGSLRLSCAASGSTDSIEYMTWFRQAPGKAREGVAALYTHTGNTYYTDSVKGRFTISQDKAKNMWYLRMDSVKSEDTAIYTCGATRKYVPVRFALDQSSYDYWGQGTQVTVSS
notes: as the VHH chain of Sm1 (D3-L11 wild type, PDB 6JB8) with A79W; SAG tripeptide linker before the C-terminal 6xHis tag; source: ExpiCHO, transient transfection, purified from supernatant (His Mag Sepharose excel); not shown: His6, C-terminal, kept
B2: D3-L11 A79C (VHH)
VHH: B1 VHH with W79C
notes: as the VHH chain of Sm1 (D3-L11 wild type, PDB 6JB8) with A79C; SAG tripeptide linker before the C-terminal 6xHis tag; source: ExpiCHO, transient transfection, purified from supernatant (His Mag Sepharose excel); not shown: His6, C-terminal, kept
B3: D3-L11 A79M (VHH)
VHH: B1 VHH with W79M
notes: as the VHH chain of Sm1 (D3-L11 wild type, PDB 6JB8) with A79M; SAG tripeptide linker before the C-terminal 6xHis tag; source: ExpiCHO, transient transfection, purified from supernatant (His Mag Sepharose excel); not shown: His6, C-terminal, kept
B4: D3-L11 A79Y (VHH)
VHH: B1 VHH with W79Y
notes: as the VHH chain of m2 (D3-L11, PDB 6JB8) with the stated substitution; Second-round mutant; same construct as m2; also called Y mutant; source: ExpiCHO, transient transfection, purified from supernatant (His Mag Sepharose excel); not shown: His6 (after a SAG tripeptide linker), C-terminal, kept
B5: D3-L11 A79P (VHH)
VHH: B1 VHH with W79P
notes: as the VHH chain of m2 (D3-L11, PDB 6JB8) with the stated substitution; Second-round mutant; same construct as m2; Too little protein for SPR; also called P mutant; source: ExpiCHO, transient transfection, purified from supernatant (His Mag Sepharose excel); not shown: His6 (after a SAG tripeptide linker), C-terminal, kept
B6: D3-L11 A79C (VHH)
VHH: B1 VHH with W79C
notes: as the VHH chain of m2 (D3-L11, PDB 6JB8) with the stated substitution; Second-round mutant; same construct as m2; also called C mutant; source: ExpiCHO, transient transfection, purified from supernatant (His Mag Sepharose excel); not shown: His6 (after a SAG tripeptide linker), C-terminal, kept
B7: D3-L11 A79V (VHH)
VHH: B1 VHH with W79V
notes: as the VHH chain of Sm1 (D3-L11 wild type, PDB 6JB8) with A79V; SAG tripeptide linker before the C-terminal 6xHis tag; source: ExpiCHO, transient transfection, purified from supernatant (His Mag Sepharose excel); not shown: His6, C-terminal, kept
B8: D3-L11 A79Q (VHH)
VHH: B1 VHH with W79Q
notes: as the VHH chain of m2 (D3-L11, PDB 6JB8) with the stated substitution; Second-round mutant; same construct as m2; also called Q mutant; source: ExpiCHO, transient transfection, purified from supernatant (His Mag Sepharose excel); not shown: His6 (after a SAG tripeptide linker), C-terminal, kept
B9: D3-L11 A79S (VHH)
VHH: B1 VHH with W79S
notes: as the VHH chain of m2 (D3-L11, PDB 6JB8) with the stated substitution; Second-round mutant; same construct as m2; also called S mutant; source: ExpiCHO, transient transfection, purified from supernatant (His Mag Sepharose excel); not shown: His6 (after a SAG tripeptide linker), C-terminal, kept
B10: D3-L11 A79I (VHH)
VHH: B1 VHH with W79I
notes: as the VHH chain of m2 (D3-L11, PDB 6JB8) with the stated substitution; Second-round mutant; same construct as m2; also called I mutant; source: ExpiCHO, transient transfection, purified from supernatant (His Mag Sepharose excel); not shown: His6 (after a SAG tripeptide linker), C-terminal, kept
B11: D3-L11 A79T (VHH)
VHH: B1 VHH with W79T
notes: as the VHH chain of m2 (D3-L11, PDB 6JB8) with the stated substitution; Second-round mutant; same construct as m2; also called T mutant; source: ExpiCHO, transient transfection, purified from supernatant (His Mag Sepharose excel); not shown: His6 (after a SAG tripeptide linker), C-terminal, kept
B12: D3-L11 A79K (VHH)
VHH: B1 VHH with W79K
notes: as the VHH chain of m2 (D3-L11, PDB 6JB8) with the stated substitution; Second-round mutant; same construct as m2; Too little protein for SPR; also called K mutant; source: ExpiCHO, transient transfection, purified from supernatant (His Mag Sepharose excel); not shown: His6 (after a SAG tripeptide linker), C-terminal, kept
B13: D3-L11 A79Q (VHH)
VHH: B1 VHH with W79Q
notes: as the VHH chain of Sm1 (D3-L11 wild type, PDB 6JB8) with A79Q; SAG tripeptide linker before the C-terminal 6xHis tag; source: ExpiCHO, transient transfection, purified from supernatant (His Mag Sepharose excel); not shown: His6, C-terminal, kept
B14: D3-L11 A79N (VHH)
VHH: B1 VHH with W79N
notes: as the VHH chain of m2 (D3-L11, PDB 6JB8) with the stated substitution; Second-round mutant; same construct as m2; also called N mutant; source: ExpiCHO, transient transfection, purified from supernatant (His Mag Sepharose excel); not shown: His6 (after a SAG tripeptide linker), C-terminal, kept
B15: D3-L11 A79T (VHH)
VHH: B1 VHH with W79T
notes: as the VHH chain of Sm1 (D3-L11 wild type, PDB 6JB8) with A79T; SAG tripeptide linker before the C-terminal 6xHis tag; source: ExpiCHO, transient transfection, purified from supernatant (His Mag Sepharose excel); not shown: His6, C-terminal, kept
B16: D3-L11 A79S (VHH)
VHH: B1 VHH with W79S
notes: as the VHH chain of Sm1 (D3-L11 wild type, PDB 6JB8) with A79S; SAG tripeptide linker before the C-terminal 6xHis tag; source: ExpiCHO, transient transfection, purified from supernatant (His Mag Sepharose excel); not shown: His6, C-terminal, kept
B17: D3-L11 A79R (VHH)
VHH: B1 VHH with W79R
notes: as the VHH chain of Sm1 (D3-L11 wild type, PDB 6JB8) with A79R; SAG tripeptide linker before the C-terminal 6xHis tag; source: ExpiCHO, transient transfection, purified from supernatant (His Mag Sepharose excel); not shown: His6, C-terminal, kept
B18: D3-L11 A79M (VHH)
VHH: B1 VHH with W79M
notes: as the VHH chain of m2 (D3-L11, PDB 6JB8) with the stated substitution; Second-round mutant; same construct as m2; also called M mutant; source: ExpiCHO, transient transfection, purified from supernatant (His Mag Sepharose excel); not shown: His6 (after a SAG tripeptide linker), C-terminal, kept

Tests used:
Settings in all cases: both partners purified
hen egg lysozyme [1] = molecular target: T1, hen egg lysozyme (Gallus gallus (hen egg white), UniProt P00698); experiment: SPR; Biacore T200; lysozyme immobilised on Sensor Chip CM5 by amine coupling (200 RU); VHH injected 300 s, dissociation 600 s in PBST (PBS, 0.005% Tween 20); 1:1 binding model; duplicate
T1 construct: hen egg lysozyme (HEL), the antigen of D3-L11; also in PDB 6JB8; The supplier is named for the ELISA only; also called HEL; antigen lysozyme; source: bought: Sigma-Aldrich, Cat No. L6876
T1 sequence (P00698 19-147): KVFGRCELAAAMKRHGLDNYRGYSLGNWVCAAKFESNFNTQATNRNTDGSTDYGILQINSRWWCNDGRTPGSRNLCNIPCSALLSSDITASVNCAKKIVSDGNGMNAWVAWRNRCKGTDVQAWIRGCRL

hen egg lysozyme [2] = molecular target: T2, hen egg lysozyme (Gallus gallus (hen egg white), UniProt P00698); experiment: SPR; Biacore T200; lysozyme immobilised on Sensor Chip CM5 by amine coupling to 200 RU; VHH injected 300 s, dissociation 600 s; running buffer PBST (PBS, 0.005% Tween 20); duplicate; 1:1 binding model
T2 construct: hen egg lysozyme (HEL), antigen of VHH D3-L11; also in the complex structure PDB 6JB8; also called HEL; antigen lysozyme; source: bought: Sigma-Aldrich, Cat No. L6876 (named for the ELISA)
T2 sequence (P00698 19-147): as above

hen egg lysozyme [3] = molecular target: T2, hen egg lysozyme; experiment: ELISA; lysozyme (1 ug/mL) coated on 384-well MaxiSorp plate overnight at 4 °C; serial concentrations of VHH in 5% BlockingOne in TBST, 1 h at room temperature; detected with Penta-His HRP conjugate

Binder	Kd (hen egg lysozyme [1]) [pM]	fold decrease in affinity (KD) against wild type (hen egg lysozyme [2]) [fold]	further results
B1	14.9 ± 0.1		
B2	3.74 ± 0.03		
B3	6.91 ± 0.1		
B4		< 2	
B5			binding result (hen egg lysozyme [3]): binds
B6		< 2	
B7	3.66 ± 0.13		
B8		< 10	
B9		< 10	fold decrease in affinity (EC50) against wild type (hen egg lysozyme [3]): < 10 fold
B10		1.6	
B11		< 10	
B12			binding result (hen egg lysozyme [3]): binds
B13	7.2 ± 0.03		
B14		< 10	fold decrease in affinity (EC50) against wild type (hen egg lysozyme [3]): < 10 fold
B15	13.1 ± 0.4		
B16	11.7		
B17	26 ± 0.1		
B18		< 10	fold decrease in affinity (EC50) against wild type (hen egg lysozyme [3]): < 10 fold
